The target in assay [1] is T1, tryptophan-free recombinant porcine amelogenin (rP172-W25Y/W45Y/W161Y) (porcine, UniProt P45561 17-189, W25Y | W45Y | W161Y).
T1 construct: all three tryptophans changed to tyrosine; also called rP172-W0; recombinant Amel
T1 sequence (looked up): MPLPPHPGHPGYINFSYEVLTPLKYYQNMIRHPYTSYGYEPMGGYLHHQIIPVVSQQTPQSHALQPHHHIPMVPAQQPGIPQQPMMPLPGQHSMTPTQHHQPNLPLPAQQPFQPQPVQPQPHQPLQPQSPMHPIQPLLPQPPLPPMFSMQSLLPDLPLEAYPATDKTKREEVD
The assay can be described thus: other fluorescence titration; intrinsic tryptophan fluorescence (excitation 295 nm, peak wavelength); 8 uM tryptophan-containing peptide before and after 40 uM rP172-W0, no LUVs; 10 mM Tris-HCl, 50 mM NaCl, final pH 7.4. Conditions: both partners purified.

For assay [2], the target named is spin-labeled xAB2N and AB2 (all residues). As to the kind of experiment: EPR (continuous-wave, site-directed spin labelling); 15 uM spin-labeled peptide in 50 mM Tris, pH 7.6, 50 mM NaCl; rP172-W0 added to 15 uM, then to 75 uM; all in solution.

B1: xAB2N, extended AB2 N-terminus (peptide, UniProt O55189 51-86, looked up)
peptide: TMRQLGSLQGLNALSQYSRLGFGKALNSLWLHGLLP
notes: source: synthetic peptide (Biomer Technologies)
Turning to B1, in assay [1], the binding result is recorded as “binds”.

B2: AB2N, the first 20 amino acids of the AB2 sequence (peptide, UniProt O55189 67-86, looked up)
peptide: YSRLGFGKALNSLWLHGLLP
notes: Mouse ameloblastin (Ambn), the first 20 residues of AB2; residues 3-20 of AB2 are stated to be residues 69-86 of mouse Ambn, so the peptide is 67-86; also called AB2 N-terminus; source: synthetic peptide (Biomer Technologies)
As for B2, the binding result in assay [1] was “binds”.

B3: tryptophan-free recombinant porcine amelogenin (rP172-W25Y/W45Y/W161Y) (natural protein)
chain: T1 sequence (looked up)
B3 yielded a difference between inverse central linewidths (1/LW) of EPR spectra with and without Amel in assay [2] of 0.16 to 0.35 G.^-1.

(Values after article PMC9966149, “The Dynamic Interactions of a Multitargeting Domain in Ameloblastin Protein with Amelogenin and Membrane” (International Journal of Molecular Sciences, 2023).)
